One series concerns CC(=O)C(=O)O. As to the kind of experiment: OHB/pyruvate reductase assay, Oc-LdhA. The series is classed as biochemical, Oryctalagus cuniculus. The conditions noted are these: other: pH 7, 37° C., 0.25 mM NADH. From the text: (§1) The genes coding for (L)-malate dehydrogenase in Escherichia coli, Ec-mdh (SEQ ID NO: 1), (D)-lactate dehydrogenase in E. coli, Ec-ldhA (SEQ ID NO: 3), (L)-lactate dehydrogenase of Lactococcus lactis, Ll-ldhA (SEQ ID NO: 5), (L)-lactate dehydrogenase of Bacillus subtilis, Bs-ldh (SEQ ID NO: 7), (L)-lactate dehydrogenase of Geobacillus stearothermophilus, Gs-ldh (SEQ ID NO: 9), the two isoforms of the (L)-lactate dehydrogenase of Oryctalagus cuniculus, Oc-ldhA (SEQ ID NO: 11 and SEQ ID NO: 13), were amplified by PCR using the high-fidelity polymerase Phusion™ (Fermentas) and the primers listed in Table 1. Genomic DNAs of E. coli MG1655, L. lactis IL1403, and B. subtilis strain 168 were used as the template. The genes Oc-ldhA, and Gs-ldh were codon-optimized for expression in E. coli and synthesized by MWG Eurofins. The primers introduced restriction sites (Table 1) upstream of the start codon and downstream of the stop codon, respectively, facilitating the ligation of the digested PCR products into the corresponding sites of the pET28a+ (Novagen) expression vector using T4 DNA ligase (Fermentas). Ligation products were transformed into E. coli DH5a cells (NEB). […]

The next series relates to O=C(O)C(=O)CCO. The experiment in a line: OHB/pyruvate reductase assay, Oc-LdhA. Format: biochemical, Oryctalagus cuniculus. Conditions: other: pH 7, 37° C., 0.25 mM NADH.
Text: as §1

Usually Km stands for the substrate concentration at which the rate is half of its maximum. With “Oryctolagus cuniculus (printed: Oryctalagus cuniculus) (L)-lactate dehydrogenase Oc-LdhA, SEQ ID NO: 12 and SEQ ID NO: 14 (two isoforms) (Oryctolagus cuniculus)”, the Michaelis-Menten constant (Km) turned out to be 1.5 mM with CC(=O)C(=O)O and 13 mM in the series with O=C(O)C(=O)CCO.

The values above are taken from patent US11505811B2, “Method for the preparation of 2,4-dihydroxybutyrate” (ADISSEO FRANCE S.A.S., priority 2012, dated 2022).
